Target: T1, HBEGF (delta TM)-ALP, Q99075
T1 chain: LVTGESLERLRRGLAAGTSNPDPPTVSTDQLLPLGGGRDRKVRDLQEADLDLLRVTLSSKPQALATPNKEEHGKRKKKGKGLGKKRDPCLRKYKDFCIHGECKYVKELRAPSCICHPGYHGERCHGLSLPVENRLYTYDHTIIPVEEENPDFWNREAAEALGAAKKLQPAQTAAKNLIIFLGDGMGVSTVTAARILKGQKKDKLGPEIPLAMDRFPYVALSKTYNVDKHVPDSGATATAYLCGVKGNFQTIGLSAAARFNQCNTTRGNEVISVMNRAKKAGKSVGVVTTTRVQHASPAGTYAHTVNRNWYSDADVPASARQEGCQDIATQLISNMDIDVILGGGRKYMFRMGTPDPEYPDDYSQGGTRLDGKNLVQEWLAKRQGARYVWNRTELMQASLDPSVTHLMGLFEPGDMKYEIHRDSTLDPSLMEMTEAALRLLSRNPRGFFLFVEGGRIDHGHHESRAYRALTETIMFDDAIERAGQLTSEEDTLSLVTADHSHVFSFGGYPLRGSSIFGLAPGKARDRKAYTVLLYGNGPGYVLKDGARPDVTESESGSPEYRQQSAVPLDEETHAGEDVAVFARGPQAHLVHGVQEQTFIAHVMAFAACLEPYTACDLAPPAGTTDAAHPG

B1: recombinant AST (human airway-specific trypsin-like enzyme expressed in insect cells with a baculovirus vector, purified as in Example 1) (peptide)
chain 1: DQAAANWLINECGAGPDLITLSEQR
chain 2: not shown
cleavage seen by western blotting of the lysate incubated with recombinant HAST (1.56 U/mL) at 37° C. overnight: A mature type having the EGF domain of the HB-EGF was cut out. The band was shifted to a position of about 12 kD.

Reference: US20040038369
